Measured values published in the supplement of paper PMC10724198.
± gives the standard deviation of the averaged measurements.
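Further: PSI is a weighted mean of sequencing reads over stability bins, variants kept only with over 10 reads, mCherry proximal and sfGFP distal, peptide attached via GGGS linker.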

The sequences below were run on Saccharomyces cerevisiae (assay: protein stability index of tFT-peptide fusion (C-terminal peptide) (PSI (0-1 scale)); higher = more stable (slower turnover)). Conditions: genetic background: wild type; temperature: 30 C.
For PPVSLGCPPGRP, the protein stability index was 0.776 ± 0.099. PPVSPFPVLQGR was tested, and the protein stability index was 0.652 ± 0.048. PPWPPQVALPPT was tested, and the protein stability index was 0.762 ± 0.068. With PPYPLLLRLPPP the protein stability index was 0.618 ± 0.066. PQCSLPLPFTLL was tested, and the protein stability index was 0.61363 ± 0.00047. Sequence PQHLPFPSPAPP has a protein stability index of 0.711 ± 0.011. PQILTSRVAIKL was tested, and the protein stability index was 0.646 ± 0.068. For PQLFLENHEFCI, the protein stability index was 0.925 ± 0.051. In the case of PQLPSRVYPSLP, the protein stability index is reported as 0.695 ± 0.027. With PQRPRTLPPLTP the protein stability index was 0.7236 ± 0.0015. For PQTPANDDGDPN, the protein stability index was 0.642 ± 0.041. For PQVNSNQIRAPD, the protein stability index was 0.677 ± 0.021. In the case of PQYLSGFDIHNG, the protein stability index is reported as 0.728 ± 0.052. Work on PRAPHHRIPEDL yielded a protein stability index of 0.733 ± 0.097. PRDRLIRNHVTR showed a protein stability index of 0.716 ± 0.086. PRERADPSLPVK gave a protein stability index of 0.663 ± 0.035. In the case of PRFKPSRSTPAD, the protein stability index is reported as 0.675 ± 0.031. For PRGLFLTRLRPC, the protein stability index was 0.64 ± 0.058. Sequence PRIPPLRPPPPA has a protein stability index of 0.6649 ± 0.0047. In the case of PRKVNAHKDTCH, the protein stability index is reported as 0.693 ± 0.022. PRLARSASLDSP was tested, and the protein stability index was 0.731 ± 0.08. Sequence PRLLPPDPRHAP has a protein stability index of 0.7002 ± 0.0032. For PRLPPTDHAGAL, the protein stability index was 0.675 ± 0.04. With PRLRPFATPNCF the protein stability index was 0.636 ± 0.046. Sequence PRPDPAPPAALP has a protein stability index of 0.6017 ± 0.0057. PRPGGQGHPNAG gave a protein stability index of 0.742 ± 0.027. Sequence PRPKPSAIPILT has a protein stability index of 0.597 ± 0.015. With PRPLLPPPPLLA the protein stability index was 0.629 ± 0.083. PRPLPSPPHPRP showed a protein stability index of 0.71 ± 0.026. Sequence PRPLPTGRFPPP has a protein stability index of 0.669 ± 0.028. In the case of PRPPLPSTPEAA, the protein stability index is reported as 0.612 ± 0.024. Sequence PRPPLRATASVV has a protein stability index of 0.699 ± 0.033. PRPPPSRSFPPP showed a protein stability index of 0.784 ± 0.13. For PRPPTSPPSLHP, the protein stability index was 0.7 ± 0.025. PRQACPLPLPHV was tested, and the protein stability index was 0.655 ± 0.029. Work on PRQGTRKYDKMN yielded a protein stability index of 0.724 ± 0.059. Work on PRRAARLLPRPL yielded a protein stability index of 0.693 ± 0.015. PRRARPLALVFH showed a protein stability index of 0.6 ± 0.033. Work on PRRSSSPPLLSP yielded a protein stability index of 0.784 ± 0.0088. Work on PRSAPPVPPIYP yielded a protein stability index of 0.6502 ± 0.0053. In the case of PRSAPSPRRSPA, the protein stability index is reported as 0.757 ± 0.034. For PRSFPPRPPPPV, the protein stability index was 0.726 ± 0.051. In the case of PRSLPAGHPSRG, the protein stability index is reported as 0.692 ± 0.028. Work on PRSMLIFPSFPF yielded a protein stability index of 0.825 ± 0.042. For PRSPPPPPPLPP, the protein stability index was 0.626 ± 0.019. Work on PRSPPTPPPAPP yielded a protein stability index of 0.66 ± 0.013. In the case of PRSYPPSPPPPS, the protein stability index is reported as 0.704 ± 0.042. In the case of PRTHPPPPAPCR, the protein stability index is reported as 0.6634 ± 0.0054. Work on PRTPRPPSPPAS yielded a protein stability index of 0.739 ± 0.015. PRTRSYTRCGVT gave a protein stability index of 0.614 ± 0.024. PRYCQIKIISHK gave a protein stability index of 0.554 ± 0.14. PRYPLLPAHTLI was tested, and the protein stability index was 0.705 ± 0.029. PSAFPAPPLRCS showed a protein stability index of 0.686 ± 0.027. Work on PSAPPPPPPSPP yielded a protein stability index of 0.5979 ± 0.005. PSCLGSIRSTPL showed a protein stability index of 0.657 ± 0.02. For PSDPTPSVPPIV, the protein stability index was 0.6647 ± 0.001. In the case of PSFPPLLSSSSI, the protein stability index is reported as 0.763 ± 0.11. With PSFVPHLPRPPP the protein stability index was 0.722 ± 0.071. PSHFSPPSAPPP gave a protein stability index of 0.738 ± 0.055. Work on PSIHCLSATQTW yielded a protein stability index of 0.672 ± 0.068. PSIPPPSPSPPA showed a protein stability index of 0.717 ± 0.027. PSLHSPPPPPPR showed a protein stability index of 0.703 ± 0.053. With PSLLSFPFVSLP the protein stability index was 0.696 ± 0.05. For PSLPPLPRSPPP, the protein stability index was 0.714 ± 0.04. PSLPPPPHSAFC showed a protein stability index of 0.698 ± 0.073. PSLPPPPPPPSP gave a protein stability index of 0.614 ± 0.082. Work on PSLPPPPPTPPT yielded a protein stability index of 0.688 ± 0.047. Work on PSLPVPPTLCPI yielded a protein stability index of 0.675 ± 0.062. Sequence PSLSPPVHALLF has a protein stability index of 0.722 ± 0.013. In the case of PSLSVPERSPSL, the protein stability index is reported as 0.7 ± 0.041. Work on PSPFPPPSHPSP yielded a protein stability index of 0.695 ± 0.0041. PSPHAITSHFRP gave a protein stability index of 0.723 ± 0.04. PSPHRELNESHE was tested, and the protein stability index was 0.674 ± 0.045. Work on PSPHSPPSFLPL yielded a protein stability index of 0.729 ± 0.024. PSPLRLPPPSVP gave a protein stability index of 0.712 ± 0.013. For PSPMVPHVPMST, the protein stability index was 0.74579 ± 0.00057. With PSPPLLTPLPPC the protein stability index was 0.675 ± 0.022. In the case of PSPPPGPPPLPP, the protein stability index is reported as 0.613 ± 0.011. PSPPPHPGGTRR was tested, and the protein stability index was 0.652 ± 0.057. PSPPPHPIHPMA was tested, and the protein stability index was 0.754 ± 0.18. In the case of PSPPPHSAPPLP, the protein stability index is reported as 0.732 ± 0.025. In the case of PSPPPLLPRPHL, the protein stability index is reported as 0.714 ± 0.1. For PSPPPPAPPPPP, the protein stability index was 0.666 ± 0.013. With PSPPPPPLPPAG the protein stability index was 0.663 ± 0.097. For PSPPPPSALLSP, the protein stability index was 0.727 ± 0.066. Sequence PSPPPPSLPPPP has a protein stability index of 0.67 ± 0.15. With PSPPPRPPLSPP the protein stability index was 0.715 ± 0.052. In the case of PSPPPVRPRHHH, the protein stability index is reported as 0.597 ± 0.069. With PSPPSLPSCYAT the protein stability index was 0.717 ± 0.029. PSPPTPSPPPPP showed a protein stability index of 0.712 ± 0.062. PSPRPAPPPPPP showed a protein stability index of 0.707 ± 0.054. For PSPSAFLPCRLD, the protein stability index was 0.791 ± 0.094. PSPSPPRSPALS showed a protein stability index of 0.713 ± 0.056. PSPVLLLPPPSL was tested, and the protein stability index was 0.745 ± 0.059. With PSPWPPPPSDPP the protein stability index was 0.552 ± 0.12. PSQRRTPPGLFK was tested, and the protein stability index was 0.656 ± 0.059. PSRRILFSAALL was tested, and the protein stability index was 0.764 ± 0.28. With PSRYHPLPPPTP the protein stability index was 0.711 ± 0.084. Work on PSSDVLLFALSF yielded a protein stability index of 0.6486 ± 0.0049. With PSSPLFLPPPPP the protein stability index was 0.696 ± 0.023. PSSPPPPPLPPC showed a protein stability index of 0.649 ± 0.058. For PSSPSTRPRFPL, the protein stability index was 0.68 ± 0.083. PSSRPPMSPIDT was tested, and the protein stability index was 0.694 ± 0.018. PSSSSPPPTFSL showed a protein stability index of 0.625 ± 0.066. PSSSSPPSLTPA showed a protein stability index of 0.672 ± 0.097. PSTLPSHRVPLK showed a protein stability index of 0.68 ± 0.041. PSTPRPPRPPPL showed a protein stability index of 0.695 ± 0.027. In the case of PSTRVPATTHTL, the protein stability index is reported as 0.6983 ± 0.00091. For PSVPPSPPAPPT, the protein stability index was 0.687 ± 0.032. Sequence PSVPSPPPPSPP has a protein stability index of 0.683 ± 0.024. Sequence PSWPRRSSPLAI has a protein stability index of 0.73 ± 0.013. Sequence PSWVFRCAPSPF has a protein stability index of 0.505 ± 0.084. For PSYPTAPHHSAA, the protein stability index was 0.704 ± 0.043. For PTARGACRAPRS, the protein stability index was 0.667 ± 0.037. For PTGSGLTLNRVL, the protein stability index was 0.7187 ± 0.0062. With PTHPSRLRLFSA the protein stability index was 0.612 ± 0.024. Sequence PTLAFIPIPTLF has a protein stability index of 0.6051 ± 0.004. PTLCLPESSGRL was tested, and the protein stability index was 0.705 ± 0.028. PTLWRSSVRHVW was tested, and the protein stability index was 0.714 ± 0.066. In the case of PTPCCFPHPPPT, the protein stability index is reported as 0.709 ± 0.02. With PTPFVPSPPCRA the protein stability index was 0.664 ± 0.041. PTPGSSPLPATL gave a protein stability index of 0.687 ± 0.0075. For PTPPHPSHPTAP, the protein stability index was 0.665 ± 0.023. With PTPPPLTPPPCF the protein stability index was 0.678 ± 0.014. For PTPSPPLPPITP, the protein stability index was 0.773 ± 0.024. Sequence PTPTGPGSTSPP has a protein stability index of 0.662 ± 0.046. For PTQSPSTIPPSP, the protein stability index was 0.763 ± 0.11. PTRPPPTSHTPY gave a protein stability index of 0.685 ± 0.02. In the case of PTRPSHTALPSA, the protein stability index is reported as 0.664 ± 0.023. Work on PTRRQEVPPEPT yielded a protein stability index of 0.636 ± 0.058. In the case of PTSPTTSPDHKH, the protein stability index is reported as 0.684 ± 0.15. In the case of PTTAPPPRSAGA, the protein stability index is reported as 0.764 ± 0.051. Work on PTTFLSPPSPPS yielded a protein stability index of 0.71 ± 0.011. PTTPPPSVPPLY was tested, and the protein stability index was 0.715 ± 0.042. Sequence PTVPLSSVVRDA has a protein stability index of 0.746 ± 0.051. With PVAGMSNTPLYG the protein stability index was 0.685 ± 0.11. With PVAPPQLSPPSS the protein stability index was 0.6704 ± 0.0048. With PVCASVSLTSSP the protein stability index was 0.697 ± 0.024. PVGEGAGELGGG showed a protein stability index of 0.642 ± 0.034. In the case of PVGGAGCVRGGV, the protein stability index is reported as 0.749 ± 0.19. For PVILPPLAPFLS, the protein stability index was 0.629 ± 0.019. In the case of PVITPPSSTPPI, the protein stability index is reported as 0.6815 ± 0.0021. Work on PVLANPQGHPPN yielded a protein stability index of 0.719 ± 0.027. For PVLCLRMQVLSK, the protein stability index was 0.532 ± 0.032. Sequence PVLPPRSFPPSS has a protein stability index of 0.697 ± 0.014. In the case of PVLSPPRPFNSL, the protein stability index is reported as 0.677 ± 0.018. For PVPLPSPFPLPL, the protein stability index was 0.664 ± 0.0093. Work on PVPPPPPSLHPP yielded a protein stability index of 0.636 ± 0.023. PVPPRPHGFPHL showed a protein stability index of 0.678 ± 0.023. PVRFVDGFLSPI showed a protein stability index of 0.713 ± 0.03. For PVSPAHLRRSLL, the protein stability index was 0.775 ± 0.031. Work on PVSPPRLPRPPP yielded a protein stability index of 0.615 ± 0.017. With PVSSFHICGPIC the protein stability index was 0.71 ± 0.0098. In the case of PVSVALASGSLF, the protein stability index is reported as 0.744 ± 0.1. PVTALIASLILR gave a protein stability index of 0.611 ± 0.031. PVTPHESVVPSL gave a protein stability index of 0.686 ± 0.02. Work on PVVSRPSNFRWV yielded a protein stability index of 0.663 ± 0.02. PVWDGTAKLSVI gave a protein stability index of 0.65 ± 0.026. PVYSIARLVPGV showed a protein stability index of 0.693 ± 0.029. Work on PWSFSPLPFVLL yielded a protein stability index of 0.673 ± 0.037.
